B1: Integrin beta-3 (Homo sapiens), P05106 (parent)
chain: MRARPRPRPLWATVLALGALAGVGVGGPNICTTRGVSSCQQCLAVSPMCAWCSDEALPLGSPRCDLKENLLKDNCAPESIEFPVSEARVLEDRPLSDKGSGDSSQVTQVSPQRIALRLRPDDSKNFSIQVRQVEDYPVDIYYLMDLSYSMKDDLWSIQNLGTKLATQMRKLTSNLRIGFGAFVDKPVSPYMYISPPEALENPCYDMKTTCLPMFGYKHVLTLTDQVTRFNEEVKKQSVSRNRDAPEGGFDAIMQATVCDEKIGWRNDASHLLVFTTDAKTHIALDGRLAGIVQPNDGQCHVGSDNHYSASTTMDYPSLGLMTEKLSQKNINLIFAVTENVVNLYQNYSELIPGTTVGVLSMDSSNVLQLIVDAYGKIRSKVELEVRDLPEELSLSFNATCLNNEVIPGLKSCMGLKIGDTVSFSIEAKVRGCPQEKEKSFTIKPVGFKDSLIVQVTFDCDCACQAQAEPNSHRCNNGNGTFECGVCRCGPGWLGSQCECSEEDYRPSQQDECSPREGQPVCSQRGECLCGQCVCHSSDFGKITGKYCECDDFSCVRYKGEMCSGHGQCSCGDCLCDSDWTGYYCNCTTRTDTCMSSNGLLCSGRGKCECGSCVCIQPGSYGDTCEKCPTCPDACTFKKECVECKKFDRGALHDENTCNRYCRDEIESVKELKDTGKDAVNCTYKNEDDCVVRFQYYEDSSGKSILYVVEEPECPKGPDILVVLLSVMGAILLIGLAALLIWKLLITIHDRKEFAKFEEERARAKWDTANNPLYKEATSTFTNITYRGT

Variants of: B1
Settings: with tln1_mouse Tln1, P26039
tln1_mouse Tln1, P26039, sequence (P26039 whole entry): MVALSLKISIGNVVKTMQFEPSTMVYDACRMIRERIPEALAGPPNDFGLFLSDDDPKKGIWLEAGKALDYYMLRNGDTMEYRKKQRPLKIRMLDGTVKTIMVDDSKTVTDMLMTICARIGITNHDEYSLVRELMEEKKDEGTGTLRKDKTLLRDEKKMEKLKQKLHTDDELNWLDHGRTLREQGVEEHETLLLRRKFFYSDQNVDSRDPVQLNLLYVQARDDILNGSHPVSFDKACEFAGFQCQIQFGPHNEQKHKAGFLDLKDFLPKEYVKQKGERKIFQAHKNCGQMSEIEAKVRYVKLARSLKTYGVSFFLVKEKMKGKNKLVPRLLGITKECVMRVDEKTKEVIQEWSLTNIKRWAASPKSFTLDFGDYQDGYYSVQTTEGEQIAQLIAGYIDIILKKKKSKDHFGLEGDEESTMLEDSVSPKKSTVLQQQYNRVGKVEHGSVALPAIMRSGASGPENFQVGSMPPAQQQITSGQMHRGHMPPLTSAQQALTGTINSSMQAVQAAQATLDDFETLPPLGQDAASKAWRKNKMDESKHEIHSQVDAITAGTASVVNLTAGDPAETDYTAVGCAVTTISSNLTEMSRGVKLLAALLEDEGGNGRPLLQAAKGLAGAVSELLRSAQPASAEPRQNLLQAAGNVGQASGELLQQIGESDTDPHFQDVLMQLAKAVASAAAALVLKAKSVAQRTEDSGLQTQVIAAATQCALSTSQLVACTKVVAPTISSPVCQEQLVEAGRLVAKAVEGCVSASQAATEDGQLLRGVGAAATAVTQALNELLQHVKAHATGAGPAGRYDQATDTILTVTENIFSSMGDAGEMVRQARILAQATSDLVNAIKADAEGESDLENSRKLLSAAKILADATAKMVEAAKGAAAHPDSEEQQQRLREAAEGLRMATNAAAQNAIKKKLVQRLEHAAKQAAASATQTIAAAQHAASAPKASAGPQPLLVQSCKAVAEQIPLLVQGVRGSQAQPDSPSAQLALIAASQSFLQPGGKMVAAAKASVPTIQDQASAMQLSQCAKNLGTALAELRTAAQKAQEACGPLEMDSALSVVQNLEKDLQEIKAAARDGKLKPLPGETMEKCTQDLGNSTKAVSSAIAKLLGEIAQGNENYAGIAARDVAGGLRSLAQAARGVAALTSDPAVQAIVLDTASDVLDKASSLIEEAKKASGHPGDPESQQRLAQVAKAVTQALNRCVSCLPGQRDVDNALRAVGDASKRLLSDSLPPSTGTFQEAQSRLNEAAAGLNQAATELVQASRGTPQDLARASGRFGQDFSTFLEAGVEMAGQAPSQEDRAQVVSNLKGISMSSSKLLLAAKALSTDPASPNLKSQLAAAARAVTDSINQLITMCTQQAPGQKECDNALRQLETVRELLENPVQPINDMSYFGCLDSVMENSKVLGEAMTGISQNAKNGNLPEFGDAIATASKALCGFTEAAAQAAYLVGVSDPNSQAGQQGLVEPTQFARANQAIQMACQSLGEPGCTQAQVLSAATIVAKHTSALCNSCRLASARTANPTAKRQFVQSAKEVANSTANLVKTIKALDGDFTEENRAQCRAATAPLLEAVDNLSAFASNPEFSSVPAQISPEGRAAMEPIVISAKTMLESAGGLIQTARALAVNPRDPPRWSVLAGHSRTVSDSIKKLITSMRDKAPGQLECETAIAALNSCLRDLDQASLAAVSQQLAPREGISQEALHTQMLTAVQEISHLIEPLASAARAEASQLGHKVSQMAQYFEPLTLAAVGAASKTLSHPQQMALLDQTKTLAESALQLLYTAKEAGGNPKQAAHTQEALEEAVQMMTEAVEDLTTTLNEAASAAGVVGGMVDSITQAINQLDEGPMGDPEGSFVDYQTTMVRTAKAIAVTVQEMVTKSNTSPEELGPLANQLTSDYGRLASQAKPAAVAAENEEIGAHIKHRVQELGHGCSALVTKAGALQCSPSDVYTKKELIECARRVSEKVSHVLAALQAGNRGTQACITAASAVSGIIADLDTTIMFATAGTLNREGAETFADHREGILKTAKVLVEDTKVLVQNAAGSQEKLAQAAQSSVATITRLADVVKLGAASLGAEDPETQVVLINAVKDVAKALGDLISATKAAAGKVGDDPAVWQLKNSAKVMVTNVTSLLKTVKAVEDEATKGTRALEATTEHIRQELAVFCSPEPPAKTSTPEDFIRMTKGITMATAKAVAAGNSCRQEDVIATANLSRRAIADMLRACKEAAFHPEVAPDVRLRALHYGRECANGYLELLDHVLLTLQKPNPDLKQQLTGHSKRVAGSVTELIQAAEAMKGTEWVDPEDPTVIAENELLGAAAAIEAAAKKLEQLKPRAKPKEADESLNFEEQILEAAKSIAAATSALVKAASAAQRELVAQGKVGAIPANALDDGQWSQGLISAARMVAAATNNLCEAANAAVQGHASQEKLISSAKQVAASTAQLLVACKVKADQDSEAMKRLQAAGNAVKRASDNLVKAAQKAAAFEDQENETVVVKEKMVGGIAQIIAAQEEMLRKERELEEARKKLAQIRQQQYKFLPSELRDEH

| Variant | effect of a mutation on the interaction |
| --- | --- |
| Y773A | decreasing interaction |
| F753A;F756A | decreasing interaction |
| W765A | disrupting interaction |

From IntAct's records for PubMed 21134644
